{
  "source": "patent US20190241648A1",
  "about": "(STATEN BIOTECHNOLOGY B V, published 2019)",
  "assay_in_all_cases": "peptide microarray",
  "key": {"[1]": {"target": "T1, wild-type ApoC3 peptide ARGWVTDGFSSLK (SEQ ID NO: 45) (human, not fully specified (bridges); also: cyclic constrained, ring type and positions not given here)", "T1 construct": "13 aa cyclic constrained peptide", "T1 peptide": "ARGWVTDGFSSLK", "summary_of_the_method": "(§1)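 Peptide microarrays of ApoC3-derived peptides incubated with antibody samples, then stained with goat anti-human IgG (Fc) DyLight680 (1:5000) and anti-HA DyLight800 (1:2000) control. Read-out by fluorescence scanning at intensities 7/7 (red/green); a secondary-only pre-stain checked background, HA frame peptides served as quality control.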"}, "ApoC3 peptide … F47G": {"target": "T2, ApoC3 peptide … F47G (human, not fully specified (bridges); also: cyclic constrained)", "T2 peptide": "ARGWVTDGGSSLK", "summary_of_the_method": "as §1"}, "ApoC3 peptide … F47R": {"target": "T3, ApoC3 peptide … F47R (human, also: cyclic constrained)", "T3 peptide": "ARGWVTDGRSSLK", "summary_of_the_method": "as §1"}, "ApoC3 peptide … L50I": {"target": "T4, ApoC3 peptide … L50I (human, not fully specified; cyclic constrained)", "T4 peptide": "ARGWVTDGFSSIK", "summary_of_the_method": "as §1"}, "ApoC3 peptide … K51V": {"target": "T5, ApoC3 peptide … K51V (human, not fully specified; cyclic constrained)", "T5 peptide": "ARGWVTDGFSSLV", "summary_of_the_method": "as §1"}, "ApoC3 peptide … K51Q": {"target": "T6, ApoC3 peptide … K51Q (human, not fully specified; cyclic constrained)", "T6 peptide": "ARGWVTDGFSSLQ", "summary_of_the_method": "as §1"}, "ApoC3 peptide … K51L": {"target": "T7, ApoC3 peptide … K51L (human, not fully specified; cyclic constrained)", "T7 peptide": "ARGWVTDGFSSLL", "summary_of_the_method": "as §1"}, "ApoC3 peptide … L50V": {"target": "T8, ApoC3 peptide … L50V (human, not fully specified (bridges); also: cyclic constrained)", "T8 peptide": "ARGWVTDGFSSVK", "summary_of_the_method": "as §1"}, "ApoC3 peptide … A39E": {"target": "T9, ApoC3 peptide … A39E (human, cyclic constrained)", "T9 peptide": "ERGWVTDGFSSLK", "summary_of_the_method": "as §1"}, "ApoC3 peptide … W42Y": {"target": "T10, ApoC3 peptide … W42Y (human, not fully specified (bridges); also: cyclic constrained)", "T10 peptide": "ARGYVTDGFSSLK", "summary_of_the_method": "as §1"}, "ApoC3 peptide … R40K": {"target": "T11, ApoC3 peptide … R40K (human, not fully specified (bridges); also: cyclic constrained)", "T11 peptide": "AKGWVTDGFSSLK", "summary_of_the_method": "as §1"}, "ApoC3 peptide … G41W": {"target": "T12, ApoC3 peptide … G41W (human, also: cyclic constrained)", "T12 peptide": "ARWWVTDGFSSLK", "summary_of_the_method": "as §1"}, "ApoC3 peptide … T44V": {"target": "T13, ApoC3 peptide … T44V (human, not fully specified (bridges); also: cyclic constrained)", "T13 peptide": "ARGWVVDGFSSLK", "summary_of_the_method": "as §1"}, "ApoC3 peptide … T44R": {"target": "T14, ApoC3 peptide … T44R (human, not fully specified (bridges); also: cyclic constrained)", "T14 peptide": "ARGWVRDGFSSLK", "summary_of_the_method": "as §1"}, "ApoC3 peptide … T44W": {"target": "T15, ApoC3 peptide … T44W (human, not fully specified (bridges); also: cyclic constrained)", "T15 peptide": "ARGWVWDGFSSLK", "summary_of_the_method": "as §1"}, "ApoC3 peptide … W42R": {"target": "T16, ApoC3 peptide … W42R (human, not fully specified (bridges); also: cyclic constrained)", "T16 peptide": "ARGRVTDGFSSLK", "summary_of_the_method": "as §1"}, "ApoC3 peptide … R40T": {"target": "T17, ApoC3 peptide … R40T (human, not fully specified (bridges); also: cyclic constrained)", "T17 peptide": "ATGWVTDGFSSLK", "summary_of_the_method": "as §1"}, "ApoC3 peptide … V43A": {"target": "T18, ApoC3 peptide … V43A (human, not fully specified; cyclic constrained)", "T18 peptide": "ARGWATDGFSSLK", "summary_of_the_method": "as §1"}, "ApoC3 peptide … K51H": {"target": "T19, ApoC3 peptide … K51H (human, not fully specified; cyclic constrained)", "T19 peptide": "ARGWVTDGFSSLH", "summary_of_the_method": "as §1"}, "ApoC3 peptide … R40W": {"target": "T20, ApoC3 peptide … R40W (human, thioether (positions not given here); also: cyclic constrained)", "T20 peptide": "AWGWVTDGFSSLK", "summary_of_the_method": "as §1"}, "ApoC3 peptide … D45C": {"target": "T21, ApoC3 peptide … D45C (human, not fully specified (bridges); also: cyclic constrained)", "T21 peptide": "ARGWVTCGFSSLK", "summary_of_the_method": "as §1"}, "ApoC3 peptide … F47V": {"target": "T22, ApoC3 peptide … F47V (human, also: cyclic constrained)", "T22 peptide": "ARGWVTDGVSSLK", "summary_of_the_method": "as §1"}, "ApoC3 peptide … S48W": {"target": "ApoC3 peptide … S48W (human, cyclic constrained)", "summary_of_the_method": "as §1"}, "ApoC3 peptide … G46L": {"target": "T23, ApoC3 peptide … G46L (human, not fully specified (bridges); also: cyclic constrained)", "T23 peptide": "ARGWVTDLFSSLK", "summary_of_the_method": "as §1"}, "ApoC3 peptide … L50G": {"target": "T24, ApoC3 peptide … L50G (human, not fully specified; cyclic constrained)", "T24 peptide": "ARGWVTDGFSSGK", "summary_of_the_method": "as §1"}, "ApoC3 peptide … D45Y": {"target": "T25, ApoC3 peptide … D45Y (human, not fully specified (bridges); also: cyclic constrained)", "T25 peptide": "ARGWVTYGFSSLK", "summary_of_the_method": "as §1"}, "ApoC3 peptide … T44Y": {"target": "T26, ApoC3 peptide … T44Y (human, not fully specified (bridges); also: cyclic constrained)", "T26 peptide": "ARGWVYDGFSSLK", "summary_of_the_method": "as §1"}, "ApoC3 peptide … G41I": {"target": "T27, ApoC3 peptide … G41I (human, also: cyclic constrained)", "T27 peptide": "ARIWVTDGFSSLK", "summary_of_the_method": "as §1"}, "ApoC3 peptide … A39L": {"target": "T28, ApoC3 peptide … A39L (human, cyclic constrained)", "T28 peptide": "LRGWVTDGFSSLK", "summary_of_the_method": "as §1"}, "ApoC3 peptide … T44H": {"target": "T29, ApoC3 peptide … T44H (human, not fully specified (bridges); also: cyclic constrained)", "T29 peptide": "ARGWVHDGFSSLK", "summary_of_the_method": "as §1"}},
  "note": "Ends that are not written are not given here.",
  "data": [
    {"binder": "anti-ApoC3 antibody 14C7 (antibody, V domains shown, it was detected with goat anti-human IgG (Fc); also called mAb 14C7; llama antibody 14C7) VH: QVQVQESGPGLVKPSQTLSLTCTVSGGSITTNSYYWSWIRQPPGKGLEWMGAIDYSGDTYYSPSLKSRTSISRDTSKNQFTLQLTSVTPEDTAVYYCVSRIPTGEYWGQGTQVTVSS VL: QTVVTQEPSLSVSPGGTVTLTCGLNSGSVTSSNYPDWYQQTPGQAPRLLIYNTNSRHSGVPSRFSGSISGNKAALTITGAQPEDEADYYCALYMGSDSVVFGGGTHLTVL", "values": [
      {"measurement": "% of binding to wild-type peptide", "setting": "[1]", "value": 100, "unit": "%"},
      {"measurement": "% of binding to wild-type peptide", "setting": "ApoC3 peptide … F47G", "value": 0, "unit": "%"},
      {"measurement": "% of binding to wild-type peptide", "setting": "ApoC3 peptide … F47R", "value": 0, "unit": "%"},
      {"measurement": "% of binding to wild-type peptide", "setting": "ApoC3 peptide … L50I", "value": 9.47, "unit": "%"},
      {"measurement": "% of binding to wild-type peptide", "setting": "ApoC3 peptide … K51V", "value": 3.85, "unit": "%"},
      {"measurement": "% of binding to wild-type peptide", "setting": "ApoC3 peptide … K51Q", "value": 5.47, "unit": "%"},
      {"measurement": "% of binding to wild-type peptide", "setting": "ApoC3 peptide … K51L", "value": 0.33, "unit": "%"},
      {"measurement": "% of binding to wild-type peptide", "setting": "ApoC3 peptide … L50V", "value": 0.74, "unit": "%"},
      {"measurement": "% of binding to wild-type peptide", "setting": "ApoC3 peptide … A39E", "value": 98.9, "unit": "%"},
      {"measurement": "% of binding to wild-type peptide", "setting": "ApoC3 peptide … W42Y", "value": 149, "unit": "%"},
      {"measurement": "% of binding to wild-type peptide", "setting": "ApoC3 peptide … R40K", "value": 58.1, "unit": "%"},
      {"measurement": "% of binding to wild-type peptide", "setting": "ApoC3 peptide … G41W", "value": 17.7, "unit": "%"},
      {"measurement": "% of binding to wild-type peptide", "setting": "ApoC3 peptide … T44V", "value": 4.26, "unit": "%"},
      {"measurement": "% of binding to wild-type peptide", "setting": "ApoC3 peptide … T44R", "value": 0, "unit": "%"},
      {"measurement": "% of binding to wild-type peptide", "setting": "ApoC3 peptide … T44W", "value": 0, "unit": "%"},
      {"measurement": "% of binding to wild-type peptide", "setting": "ApoC3 peptide … W42R", "value": 141, "unit": "%"},
      {"measurement": "% of binding to wild-type peptide", "setting": "ApoC3 peptide … R40T", "value": 38.7, "unit": "%"},
      {"measurement": "% of binding to wild-type peptide", "setting": "ApoC3 peptide … V43A", "value": 26.9, "unit": "%"},
      {"measurement": "% of binding to wild-type peptide", "setting": "ApoC3 peptide … K51H", "value": 2.43, "unit": "%"},
      {"measurement": "% of binding to wild-type peptide", "setting": "ApoC3 peptide … R40W", "value": 38.8, "unit": "%"},
      {"measurement": "% of binding to wild-type peptide", "setting": "ApoC3 peptide … D45C", "value": 11.2, "unit": "%"},
      {"measurement": "% of binding to wild-type peptide", "setting": "ApoC3 peptide … F47V", "value": 0.06, "unit": "%"},
      {"measurement": "% of binding to wild-type peptide", "setting": "ApoC3 peptide … S48W", "value": 3.49, "unit": "%"},
      {"measurement": "% of binding to wild-type peptide", "setting": "ApoC3 peptide … G46L", "value": 0, "unit": "%"},
      {"measurement": "% of binding to wild-type peptide", "setting": "ApoC3 peptide … L50G", "value": 0, "unit": "%"},
      {"measurement": "% of binding to wild-type peptide", "setting": "ApoC3 peptide … D45Y", "value": 0, "unit": "%"},
      {"measurement": "% of binding to wild-type peptide", "setting": "ApoC3 peptide … T44Y", "value": 0, "unit": "%"},
      {"measurement": "% of binding to wild-type peptide", "setting": "ApoC3 peptide … G41I", "value": 5.33, "unit": "%"},
      {"measurement": "% of binding to wild-type peptide", "setting": "ApoC3 peptide … A39L", "value": 77.5, "unit": "%"},
      {"measurement": "% of binding to wild-type peptide", "setting": "ApoC3 peptide … T44H", "value": 0.92, "unit": "%"}
    ]}
  ]
}
